For 1 substance, percent cross-linked after 1 month results are on record in PMC4320835.

The target in this assay is wild-type H3 A/Perth/16/2009 recombinant hemagglutinin (rHA) (influenza A virus, H3 A/Perth/16/2009). In words: cross-linking.

Consider “wild-type H3 A/Perth/16/2009 recombinant hemagglutinin (rHA) (natural protein)”, for which the percent cross-linked after 1 month at 25°C is 72%.
